# Source: publication PMC4725768
# Experiments:
# [1] = target: A391E EC+TM FGFR3 construct (human)
# [2] = target: FGFR3 EC+TM-(GGS)5-YFP / FGFR3 EC+TM-(GGS)5-mCherry (human)
# [3] = target: FGFR1 EC+TM-(GGS)5-YFP / FGFR1 EC+TM-(GGS)5-mCherry (human)
# [4] = target: EC+TM (L377I-G380I-A391I) FGFR3 mutant (human)
# [5] = target: EC+TM (A374I-G375I-S378I) FGFR3 mutant (human)
# [6] = target: full-length FGFR3 (human FGFR3 IIIc) fused to YFP or mCherry (human) (UniProt P22607)
# UniProt P22607, sequence (P22607 23-806): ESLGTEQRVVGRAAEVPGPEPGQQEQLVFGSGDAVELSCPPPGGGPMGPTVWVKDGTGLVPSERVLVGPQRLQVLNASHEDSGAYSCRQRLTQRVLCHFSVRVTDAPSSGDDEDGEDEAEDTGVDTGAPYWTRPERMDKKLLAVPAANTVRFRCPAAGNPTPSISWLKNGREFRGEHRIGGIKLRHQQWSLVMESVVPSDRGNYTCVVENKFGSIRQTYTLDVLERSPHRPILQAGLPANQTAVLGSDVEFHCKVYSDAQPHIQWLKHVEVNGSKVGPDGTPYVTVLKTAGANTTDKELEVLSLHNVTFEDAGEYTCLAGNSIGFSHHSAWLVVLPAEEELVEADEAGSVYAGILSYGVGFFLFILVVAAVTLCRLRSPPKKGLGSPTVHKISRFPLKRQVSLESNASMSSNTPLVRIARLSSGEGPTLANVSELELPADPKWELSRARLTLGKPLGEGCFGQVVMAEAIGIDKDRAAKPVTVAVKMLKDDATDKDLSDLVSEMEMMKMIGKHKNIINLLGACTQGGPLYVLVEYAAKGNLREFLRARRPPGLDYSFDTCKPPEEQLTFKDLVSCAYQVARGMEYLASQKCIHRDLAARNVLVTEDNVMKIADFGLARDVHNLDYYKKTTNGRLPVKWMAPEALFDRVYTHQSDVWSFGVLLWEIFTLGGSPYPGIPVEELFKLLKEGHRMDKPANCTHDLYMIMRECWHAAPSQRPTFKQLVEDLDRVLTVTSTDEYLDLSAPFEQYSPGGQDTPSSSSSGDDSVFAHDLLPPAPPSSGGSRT
intrinsic FRET of the EC+TM FGFR3 A391E dimer (QI-FRET in vesicles) at saturating fgf1 [1],intrinsic FRET of the EC+TM FGFR3 dimer (QI-FRET in vesicles) at saturating fgf1 (5 μg ml^−1) [2],intrinsic FRET of the EC+TM FGFR1 dimer (QI-FRET in vesicles) at saturating fgf1 (5 μg ml^−1) [3],intrinsic FRET of the EC+TM FGFR3 L377I-G380I-A391I dimer (QI-FRET in vesicles) at saturating fgf1 [4],intrinsic FRET of the EC+TM FGFR3 A374I-G375I-S378I dimer (QI-FRET in vesicles) at saturating fgf1 [5],"fold increase of full-length FGFR3 phosphorylation (western blot, anti-phospho-Tyr) at saturating fgf1 over no ligand [6]",intrinsic FRET of the EC+TM FGFR3 A391E dimer (QI-FRET in vesicles) at saturating fgf2 [1],intrinsic FRET of the EC+TM FGFR3 dimer (QI-FRET in vesicles) at saturating fgf2 (5 μg ml^−1) [2],intrinsic FRET of the EC+TM FGFR1 dimer (QI-FRET in vesicles) at saturating fgf2 (5 μg ml^−1) [3],intrinsic FRET of the EC+TM FGFR3 L377I-G380I-A391I dimer (QI-FRET in vesicles) at saturating fgf2 [4],intrinsic FRET of the EC+TM FGFR3 A374I-G375I-S378I dimer (QI-FRET in vesicles) at saturating fgf2 [5],"fold increase of full-length FGFR3 phosphorylation (western blot, anti-phospho-Tyr) at saturating fgf2 over no ligand [6]",Substance
0.75,0.55,0.55,0.52,0.63,1.5 to 3 fold,–,–,–,–,–,–,human fgf1 (from UniProt P05230 16-155) (ligand)
–,–,–,–,–,–,0.78,0.72,0.73,0.53,0.74,2 to 4 fold,human fgf2 (from UniProt P09038 143-288) (ligand)
